This passage reports Ki results from patent US20170369523A1, “TEMPLATE-FIXED BETA-HAIRPIN PEPTIDOMIMETICS THAT ARE LIGANDS FOR G-PROTEIN-COUPLED RECEPTORS (GPCRS) AND ARE MODULATORS OF TRANSCRIPTION FACTORS AND COACTIVATORS” (POLYPHOR AG, priority 2008, published 2017).

Numbered stars: 1 amine (or outer) side, 2 acyl side, 3 side chain; on linkers, the order of the positions; unused ones are H or OH. Square brackets hold non-standard residues; d marks the D form. Glu(cHx) = L-glutamic acid cyclohexyl ester, O=C(CC[C@H](N[*:1])C(=O)[*:2])OC1CCCCC1; Hyp = O=C(O)[C@@H]1C[C@@H](O)CN1

The target in this assay is T1, NCoA-1 (UniProt Q15788 257-385, limits assumed).
T1 construct: also called SRC-1
T1 sequence (looked up): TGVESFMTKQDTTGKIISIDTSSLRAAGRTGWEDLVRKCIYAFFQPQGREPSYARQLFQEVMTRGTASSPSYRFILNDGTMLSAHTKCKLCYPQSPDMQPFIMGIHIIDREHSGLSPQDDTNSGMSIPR
Put plainly: competition fluorescence polarization; displacement of FluoSTAT6 from NCoA-1. On the procedure: The mixtures were shaken thoroughly. Fluorescence polarization was measured on a SPECTRAmax M5 spectrometer (Molecular device) following 5-30 min incubation at room temperature. FluoSTAT6 was excited at 490 nm and emission polarization was detected at 525 nm. 40 intensity measurements were collected for each well, 20 at horizontal position of the dynamic polarizer, 20 at parallel position. As the fraction of FluoSTAT6 bound to NCoA-1 is correlated to the fluorescence polarization (FP), after normalization, the fraction of bound FluoSTAT6 (B) was determined, and the KD was calculated according to B=[(1+P/R+KD/R)−((1+P/R+KD/R)²−4P/R)^{0.5}]/2, wherein P is the total probe concentration, R the total protein concentration and KD the dissociation constant (M. H. Roehrl, J. Y. Wang, G. Wagner, Biochemistry 2004, 3, 16056).
To determine the Kᵢ values of potential inhibitors of the STAT6/NCoA-1 interaction (competition fluorescence polarization) the compounds (dilution series from 0 to 100 μM final concentration) dissolved in HEPES buffer (10 mM HEPES, 150 mM NaCl, 3.4 mM EDTA, 0.1% BSA) were dispensed in a black 96 well plate (Greiner) and FluoSTAT6 (200 nM final concentration) in HEPES buffer was added. The mixture was completed by a HEPES buffer solution of NCoA-1 (1 μM final concentration) and processed as described above. STAT6Y (C-terminal tyrosine extended STAT6 794-814 peptide) was used as a positive control. As the total fluorescence intensity of FluoSTAT6 remains similar for all samples, the fraction of peptide bound to NCoA-1 is correlated to the fluorescence polarization.
Following normalization data were fitted with IGORpro Software® (WaveMetrics, Lake Oswego, Oreg., USA) to a sigmoid equation to determine IC₅₀ values.
For orientation: Fluorescence polarisation rises when a labelled molecule tumbles more slowly, as on binding a larger partner.

B1: Ex. 9 (peptide)
peptide: cyclo(FEWLAWE[Glu(cHx)][dP]P)
SMILES: CC(C)C[C@@H]1NC(=O)[C@H](Cc2c[nH]c3ccccc23)NC(=O)[C@H](CCC(=O)O)NC(=O)[C@H](Cc2ccccc2)NC(=O)[C@@H]2CCCN2C(=O)[C@H]2CCCN2C(=O)[C@H](CCC(=O)OC2CCCCC2)NC(=O)[C@H](CCC(=O)O)NC(=O)[C@H](Cc2c[nH]c3ccccc23)NC(=O)[C@H](C)NC1=O
notes: cyclo(-P1..P8-template-)
As a reminder, the Ki is the equilibrium dissociation constant of an inhibitor or competing ligand from its target. Read a high Ki as weaker binding. Take B1: affinity was put at a Ki of 1.5 µM.

B2: Ex. 2 (peptide)
peptide: cyclo(FEWLAWEF[dP][Hyp])
SMILES: CC(C)C[C@@H]1NC(=O)[C@H](Cc2c[nH]c3ccccc23)NC(=O)[C@H](CCC(=O)O)NC(=O)[C@H](Cc2ccccc2)NC(=O)[C@@H]2C[C@@H](O)CN2C(=O)[C@H]2CCCN2C(=O)[C@H](Cc2ccccc2)NC(=O)[C@H](CCC(=O)O)NC(=O)[C@H](Cc2c[nH]c3ccccc23)NC(=O)[C@H](C)NC1=O
notes: cyclo(-P1..P8-template-)
Regarding B2, affinity was put at a Ki of 4.7 µM.

B3: Ex. 8 (peptide)
peptide: cyclo(FEWLGWEF[dP]P)
SMILES: CC(C)C[C@@H]1NC(=O)[C@H](Cc2c[nH]c3ccccc23)NC(=O)[C@H](CCC(=O)O)NC(=O)[C@H](Cc2ccccc2)NC(=O)[C@@H]2CCCN2C(=O)[C@H]2CCCN2C(=O)[C@H](Cc2ccccc2)NC(=O)[C@H](CCC(=O)O)NC(=O)[C@H](Cc2c[nH]c3ccccc23)NC(=O)CNC1=O
notes: cyclo(-P1..P8-template-)
In turn, B3 displayed a Ki of 3 µM.

B4: Ex. 11 (peptide)
peptide: cyclo(FEWYAWEF[dP]P)
SMILES: C[C@@H]1NC(=O)[C@H](Cc2ccc(O)cc2)NC(=O)[C@H](Cc2c[nH]c3ccccc23)NC(=O)[C@H](CCC(=O)O)NC(=O)[C@H](Cc2ccccc2)NC(=O)[C@@H]2CCCN2C(=O)[C@H]2CCCN2C(=O)[C@H](Cc2ccccc2)NC(=O)[C@H](CCC(=O)O)NC(=O)[C@H](Cc2c[nH]c3ccccc23)NC1=O
notes: cyclo(-P1..P8-template-)
The molecule B4 registered a Ki of 8.7 µM.

B5: Ex. 16 (peptide)
peptide: cyclo(FEWLDWEM[dP]P)
SMILES: CSCC[C@@H]1NC(=O)[C@H](CCC(=O)O)NC(=O)[C@H](Cc2c[nH]c3ccccc23)NC(=O)[C@H](CC(=O)O)NC(=O)[C@H](CC(C)C)NC(=O)[C@H](Cc2c[nH]c3ccccc23)NC(=O)[C@H](CCC(=O)O)NC(=O)[C@H](Cc2ccccc2)NC(=O)[C@@H]2CCCN2C(=O)[C@H]2CCCN2C1=O
notes: cyclo(-P1..P8-template-)
On to B5, for which the affinity, expressed as Ki, was 6.6 µM.

B6: Ex. 12 (peptide)
peptide: cyclo(FEWLYWEF[dP]P)
SMILES: CC(C)C[C@@H]1NC(=O)[C@H](Cc2c[nH]c3ccccc23)NC(=O)[C@H](CCC(=O)O)NC(=O)[C@H](Cc2ccccc2)NC(=O)[C@@H]2CCCN2C(=O)[C@H]2CCCN2C(=O)[C@H](Cc2ccccc2)NC(=O)[C@H](CCC(=O)O)NC(=O)[C@H](Cc2c[nH]c3ccccc23)NC(=O)[C@H](Cc2ccc(O)cc2)NC1=O
notes: cyclo(-P1..P8-template-)
Molecule B6 came in with a Ki of 9.3 µM.

B7: Ex. 7 (peptide)
peptide: cyclo(FEWGAWEF[dP]P)
SMILES: C[C@@H]1NC(=O)CNC(=O)[C@H](Cc2c[nH]c3ccccc23)NC(=O)[C@H](CCC(=O)O)NC(=O)[C@H](Cc2ccccc2)NC(=O)[C@@H]2CCCN2C(=O)[C@H]2CCCN2C(=O)[C@H](Cc2ccccc2)NC(=O)[C@H](CCC(=O)O)NC(=O)[C@H](Cc2c[nH]c3ccccc23)NC1=O
notes: cyclo(-P1..P8-template-)
Consider B7, for which the Ki came to 7.1 µM.

B8: Ex. 17 (peptide)
peptide: cyclo(FEALDWEF[dP]P)
SMILES: CC(C)C[C@@H]1NC(=O)[C@H](C)NC(=O)[C@H](CCC(=O)O)NC(=O)[C@H](Cc2ccccc2)NC(=O)[C@@H]2CCCN2C(=O)[C@H]2CCCN2C(=O)[C@H](Cc2ccccc2)NC(=O)[C@H](CCC(=O)O)NC(=O)[C@H](Cc2c[nH]c3ccccc23)NC(=O)[C@H](CC(=O)O)NC1=O
notes: cyclo(-P1..P8-template-)
On to B8, for which affinity was put at a Ki of 15.8 µM.
